In patent US20240368233A1 (University of Washington, published 2024) one finds binding result and Kd data, which are given here for 5 molecules.

Where “and” joins values, the source holds several entries; their conditions need not be identical. Equal entries are not always repeated.

One series deals with T1, 101B82.
T1 chain: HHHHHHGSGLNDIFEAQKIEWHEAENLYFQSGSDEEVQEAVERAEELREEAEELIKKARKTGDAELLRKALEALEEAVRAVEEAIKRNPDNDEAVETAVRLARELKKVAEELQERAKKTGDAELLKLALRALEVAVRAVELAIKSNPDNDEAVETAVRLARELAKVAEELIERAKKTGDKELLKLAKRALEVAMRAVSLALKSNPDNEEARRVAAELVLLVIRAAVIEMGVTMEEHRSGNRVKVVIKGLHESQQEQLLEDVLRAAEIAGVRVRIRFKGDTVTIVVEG
Kind of series: SEC binding assay (Superdex 200, normalised A230) of A, B and the mixture AB. The method, then: (§1) Complexes and individual components were diluted in 20 mM Tris pH 8.0, 100 mM NaCl. After o/n equilibration of the mixtures at room temperature or 4 degrees C., 500 ul of sample was injected onto a Superdex™ 200 10/300 increase GL (dimers, linear assemblies) or Superose™ 6 increase 10/300 GL (symmetric assemblies) (all columns from GE healthcare) using the absorbance at 230 nm or 473 nm (for GFP tagged components) as read-out. Dimers were mixed at monomer concentrations of 5 μM or higher. Trimer and ABCD tetramer mixtures contained 5 μM of the bivalent connector, and 7.5 μM of each terminal cap (lower absolute concentrations with the same ratios were used for some trimers). ABCA tetramer mixtures contained 5 μM per bivalent connector and 15 μM terminal cap. The hexamer mixture contained 3 μM of components C and D, 3.6 μM of B and E, and 4.4 μM of A and F. The branched assembly shown in FIG. 4A contained 2.8 μM of the trivalent connector and 4 μM of each cap. For the exchange experiment shown in FIG. 5A, the ABC trimer was preincubated at concentrations of 6 μM B and 9 μM each of A and C. C′ was then added to reach a final concentration of 2 μM B, 3 μM each of A and C, and 6 μM C′.

The next series deals with T2, 101B4.
T2 construct: also called LHD101B4
T2 chain: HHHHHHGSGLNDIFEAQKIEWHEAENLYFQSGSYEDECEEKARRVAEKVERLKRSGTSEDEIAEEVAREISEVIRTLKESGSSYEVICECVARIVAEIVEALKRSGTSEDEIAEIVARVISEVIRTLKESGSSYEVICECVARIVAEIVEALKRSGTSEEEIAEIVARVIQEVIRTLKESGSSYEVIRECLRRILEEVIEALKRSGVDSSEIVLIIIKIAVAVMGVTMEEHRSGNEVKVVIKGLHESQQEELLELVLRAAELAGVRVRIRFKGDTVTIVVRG
The series is described as above. The method, then:
as §1

The target of the next series is T3, 101B62.
T3 construct: also called LHD101B62
T3 chain: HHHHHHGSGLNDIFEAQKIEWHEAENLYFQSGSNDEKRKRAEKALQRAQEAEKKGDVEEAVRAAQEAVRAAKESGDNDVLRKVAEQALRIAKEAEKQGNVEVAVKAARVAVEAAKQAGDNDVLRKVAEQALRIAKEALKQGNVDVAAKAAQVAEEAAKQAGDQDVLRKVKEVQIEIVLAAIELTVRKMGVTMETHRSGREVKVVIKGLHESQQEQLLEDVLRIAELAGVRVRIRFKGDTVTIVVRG
The description is as above. As to the method: as §1

The next series addresses T4, LHD101 B8.
T4 single chain, LHD101 chain B fused to DHR8: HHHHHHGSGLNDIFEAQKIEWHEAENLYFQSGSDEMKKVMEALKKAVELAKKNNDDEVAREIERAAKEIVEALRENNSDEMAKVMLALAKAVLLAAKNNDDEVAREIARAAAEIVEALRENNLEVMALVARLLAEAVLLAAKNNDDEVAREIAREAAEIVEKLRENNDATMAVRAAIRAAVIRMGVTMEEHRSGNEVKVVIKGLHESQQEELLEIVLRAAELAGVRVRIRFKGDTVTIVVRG
Described as above. The method, then:
as §1

A further series concerns the target T5, 101B14.
T5 construct: also called LHD101 B14
T5 single chain, LHD101 chain B fused to DHR14: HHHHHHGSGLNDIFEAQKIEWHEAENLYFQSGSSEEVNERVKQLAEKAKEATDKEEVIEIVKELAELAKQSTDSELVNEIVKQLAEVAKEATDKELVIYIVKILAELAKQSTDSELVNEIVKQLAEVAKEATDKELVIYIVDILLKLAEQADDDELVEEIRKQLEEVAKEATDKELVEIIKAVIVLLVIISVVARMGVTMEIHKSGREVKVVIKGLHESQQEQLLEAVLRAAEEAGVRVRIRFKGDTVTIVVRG
The series is described as above. The method, then:
as §1

Series [1] concerns the molecule itself. Kind of series: SEC titration of the protomer alone at several injection concentrations (Superdex 200, normalised A230); self-association.
A further series addresses T6, LHD101 chainB.
T6 construct: also called LHD101B
T6 chain: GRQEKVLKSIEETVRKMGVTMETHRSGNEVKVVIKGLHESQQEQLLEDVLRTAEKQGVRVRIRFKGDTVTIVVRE
As to the kind of experiment: BLI steady-state titration, biotinylated unfused LHD101B on a streptavidin sensor. The method, then: Biolayer interferometry experiments were performed on an OctetRED96 BLI system (ForteBio, Menlo Park, CA). Streptavidin coated biosensors were first equilibrated for at least 10 minutes in Octet buffer (10 mM HEPES pH 7.4, 150 mM NaCl, 3 mM EDTA, 0.05% Surfactant P20) supplemented with 1 mg/ml Bovine Serum Albumin (SigmaAldrich). Enzymatically biotinylated designs were immobilized onto the biosensors by dipping the biosensors into a solution with 10-50 nM protein for 30-120 s. This was followed by dipping in fresh octet buffer to establish a baseline for 120 s. Titration experiments were performed at 25° C. while rotating at 1,000 r.p.m. Association of designs was allowed by dipping biosensors in solutions containing designed protein diluted in octet buffer until equilibrium was approached followed by dissociation by dipping the biosensors into fresh buffer solution in order to monitor the dissociation kinetics. Steady-state and global kinetic fits were performed using the manufacturer's software (Data Analysis 9.1) assuming a 1:1 binding model.

Another series concerns the target T7, 29B53.
T7 construct: also called LHD29B53
T7 chain: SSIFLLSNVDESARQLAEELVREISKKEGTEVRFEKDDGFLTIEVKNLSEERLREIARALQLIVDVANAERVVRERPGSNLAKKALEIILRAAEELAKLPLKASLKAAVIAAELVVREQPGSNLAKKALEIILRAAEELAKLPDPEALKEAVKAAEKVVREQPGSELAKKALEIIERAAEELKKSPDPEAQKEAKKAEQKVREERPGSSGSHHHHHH
As to the kind of experiment: SEC titration (Superdex 200, normalised A230) of the complexes 274A53/274B53 and 29A53/29B53.

The target in another series is T8, 206B62-2.
T8 chain: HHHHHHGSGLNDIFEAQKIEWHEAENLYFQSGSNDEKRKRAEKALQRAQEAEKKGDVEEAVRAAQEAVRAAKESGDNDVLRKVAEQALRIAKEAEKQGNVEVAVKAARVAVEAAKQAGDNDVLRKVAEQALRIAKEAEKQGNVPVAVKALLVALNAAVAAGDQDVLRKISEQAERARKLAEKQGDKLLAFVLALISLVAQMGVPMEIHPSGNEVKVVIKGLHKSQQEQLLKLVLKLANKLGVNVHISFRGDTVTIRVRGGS
Kind of series: SEC binding assay (Superdex 200, normalised A230) of A, B and the mixture AB. As to the method: as §1

The next series deals with T9, LHD206 B62-1.
T9 single chain, LHD206 chain B fused to DHR62: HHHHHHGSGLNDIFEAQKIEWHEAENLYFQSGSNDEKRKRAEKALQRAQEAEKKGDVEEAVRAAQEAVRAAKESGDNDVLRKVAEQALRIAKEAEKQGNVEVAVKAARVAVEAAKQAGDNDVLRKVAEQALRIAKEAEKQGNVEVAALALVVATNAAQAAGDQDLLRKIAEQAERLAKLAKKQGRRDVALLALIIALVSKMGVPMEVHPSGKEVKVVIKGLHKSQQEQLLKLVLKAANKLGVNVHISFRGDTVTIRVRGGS
The series is described as above. The method, then: as §1

Another series deals with T10, DF206.
T10 construct: Bivalent connector
T10 chain: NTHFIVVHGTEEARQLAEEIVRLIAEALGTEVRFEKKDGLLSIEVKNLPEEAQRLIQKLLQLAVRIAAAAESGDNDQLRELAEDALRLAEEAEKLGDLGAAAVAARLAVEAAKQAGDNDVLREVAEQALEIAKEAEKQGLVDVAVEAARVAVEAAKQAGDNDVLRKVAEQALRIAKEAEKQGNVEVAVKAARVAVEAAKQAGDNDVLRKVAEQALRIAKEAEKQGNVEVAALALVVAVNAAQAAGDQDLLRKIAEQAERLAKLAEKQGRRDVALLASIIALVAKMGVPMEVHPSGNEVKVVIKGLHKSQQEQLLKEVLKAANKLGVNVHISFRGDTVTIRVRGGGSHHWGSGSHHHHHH
Kind of series: SEC of mixed components; trimer listed in Table 6.

For another series, the target named is T11, 284B.
T11 construct: also called LHD284 B; LHD284 chainB
T11 chain: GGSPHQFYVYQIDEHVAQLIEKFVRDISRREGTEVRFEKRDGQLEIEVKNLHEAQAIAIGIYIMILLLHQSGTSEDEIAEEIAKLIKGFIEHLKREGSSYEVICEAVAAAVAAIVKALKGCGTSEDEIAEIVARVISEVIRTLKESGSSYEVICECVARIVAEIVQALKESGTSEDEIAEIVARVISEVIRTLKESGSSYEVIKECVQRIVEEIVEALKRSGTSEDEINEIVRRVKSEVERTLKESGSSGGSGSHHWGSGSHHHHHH
Kind of series: SEC binding assay (Superdex 200, normalised A230) of A, B and the mixture AB. As to the method:
as §1

Series [2] deals with T12, LHD101 chainA, split luciferase reporter construct.
T12 construct: not shown: N-terminal Strep-tag and sfGFP; GS-linker and smBiT or lgBiT
T12 chain: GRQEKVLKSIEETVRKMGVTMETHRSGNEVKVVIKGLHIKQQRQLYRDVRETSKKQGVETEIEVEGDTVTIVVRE
As to the kind of experiment: split luciferase equilibrium titration in E. coli lysate, constant partner at 1 nM; first-named construct read as the titrated one; no unit beside the number, M from the axis '[Titrated] / M'.

B1: 101A21 (designed binder)
chain: HHHHHHGSGLNDIFEAQKIEWHEAENLYFQSGSSEKEKVEELAQRIREQLPDTELAREAQELADEARKSDDSEALKVVYLALRIVQQLPDTELAREALELAKEAVKSTDSEKLKVVYLALRVVQQLPDTEEARKALEIAKEAVKADAQILLAIARAVLKMGVEMEVHPSGNEVKVVIKGLHIKQQRQLYRDVREAAKKAGVEVEIEVEGDTVTIVVRE
For the molecule B1, the binding result with 101B82 is listed as “binds”; with 101B4, “binds”; with 101B62 it was “binds”; with LHD101 B8, “binds”; with 101B14, “binds”; in [1], “no binding”. Further, the binding result with LHD101 chainB is recorded as “binds”.

B2: 29A53 (designed binder)
chain: TWQWVLINISEEARQLIEKAVRAISKKEGTEVHFEKDDGVLHIRVKNLHEKRAREIHKVAKLILEVAAAERIVRERPGSNLAKKALEIILRAAEELAKADVDAALEAAVRAAEKVVREQPGSNLAKKALEIILRAAEELAKLPDPEALKEAVKAAEKVVREQPGSELAKKALEIIERAAEELKKSPDPEAQKEAKKAEQKVREERPGSSGSHHHHHH
notes: also called LHD29A53
In the case of B2, the binding result (in the series with 29B53; in series [1]) was “binds” in each case.

B3: 206A54 (designed binder)
chain: HHHHHHGSGLNDIFEAQKIEWHEAENLYFQSGSTEDERRELEKVARKAIEAAREGNTDEVREQLQRALEIARESGTTEAVKLALEVVARVAIEAARRGNTDAVREALEVALEIARESGTTEAVKLALEVVARVAIEAARRGNTDAVREALAVAVKIALKSGTEEAFRLAKEVIKRVSDEAKKQGNEDAVKEAESFDAAAELILSLLKLFRELHERGTEIVVEVHINGRKTEIEVQGIDKRLLQIILEVIIEEIAREGPDKVEVNVHSGGQTWTFRYGGS
On to B3, for which the binding result with 206B62-2, with LHD206 B62-1 and with DF206 was “binds” each time.

B4: 284A82 (designed binder)
chain: HHHHHHGSGLNDIFEAQKIEWHEAENLYFQSGSDEEVQEAVERAEELREEAEELIKKARKTGDAELLRKALEALEEAVRAVEEAIKRNPDNDEAVETAVRLARELKKVAEELQERAKKTGDAELLKLALRALEVAVRAVELAIKSNPDNDEAVETAVRLAKELLKVAILLAKRAQETGDKELEKLARRALEVAKRAVELAIKSNPDNKEARILKLLLELAELLIELALRGTIIIVEVHINGERQTKYLILAPVEELLKHLERIEEKIKREGASEVEVKVTSGGTTWTFNIKGS
notes: also called LHD284 A DHR82 N
Take B4: the binding result with 284B was “binds”.

B5: LHD101 chainB, split luciferase reporter construct (designed binder)
chain: T6 chain
notes: not shown: N-terminal Strep-tag and sfGFP; GS-linker and smBiT or lgBiT
As to B5, the Kd in series [2] was 8 nM and 11 nM.
